Paper PMC6393702

T1: His-Vfr (UniProt P55222 1-214)
T1 sequence: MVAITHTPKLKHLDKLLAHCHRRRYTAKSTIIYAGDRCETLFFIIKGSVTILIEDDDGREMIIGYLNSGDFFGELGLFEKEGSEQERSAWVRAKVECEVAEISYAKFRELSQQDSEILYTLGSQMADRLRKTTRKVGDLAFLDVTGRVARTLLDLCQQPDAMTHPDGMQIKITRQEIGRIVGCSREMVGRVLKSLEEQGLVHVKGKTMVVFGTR


Target: T1, His-Vfr
Test: EMSA

Binder	binding result
Vfr CRE probe (dsDNA) DNA 1: TCCACGACAATGTGCCTCGCTTGGAAGCTCACGCTCCTCACACAGACGAAAAC DNA 2: GTTTTCGTCTGTGTGAGGAGCGTGAGCTTCCAAGCGAGGCACATTGTCGTGGA	binds
Vfr CRE-Δ probe (dsDNA) DNA 1: TCCACGACAACCCACCTCGCTTGGAAGCTCACGCTCCTCACACAGACGAAAAC DNA 2: GTTTTCGTCTGTGTGAGGAGCGTGAGCTTCCAAGCGAGGTGGGTTGTCGTGGA	no binding
